T1: Human ST2 (human, UniProt Q01638 19-328, limits assumed)
T1 construct: also called human ST2 protein; Interleukin 1 receptor-like 1
T1 sequence (looked up): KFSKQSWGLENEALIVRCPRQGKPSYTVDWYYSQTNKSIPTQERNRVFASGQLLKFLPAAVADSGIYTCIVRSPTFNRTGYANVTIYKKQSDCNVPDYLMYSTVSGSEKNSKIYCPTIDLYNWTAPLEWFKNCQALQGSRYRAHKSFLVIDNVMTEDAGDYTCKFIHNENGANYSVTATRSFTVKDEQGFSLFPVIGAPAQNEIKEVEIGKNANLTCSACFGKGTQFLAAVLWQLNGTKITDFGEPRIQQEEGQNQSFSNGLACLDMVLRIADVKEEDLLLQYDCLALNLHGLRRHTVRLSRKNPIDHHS

B1: Human ST2 IgG1 Antibody 88 (antibody, V domains shown)
VH: EVQLLESGGGLVQPGGSLRLSCAASGFTFSSYWMSWVRQAPGKGLEWVSSISSSGGYLYYADSVKGRFTISRDNSKNTLYLQMNSLRAEDTAVYYCARDWGLTPDYWGQGTLVTVSS
VL: not shown
notes: IgG1; also called ST2 Antibody 88
B2: Human ST2 IgG1 Antibody 80 (antibody, V domains shown)
VH: QVQLVQSGAEVKKPGSSVKVSCKASGGTFSSYAISWVRQAPGQGLEWMGGIIPIFGTANYAQKFQGRVTITADESTSTAYMELSSLRSEDTAVYYCARVMVAGTGYYFDYWGQGTLVTVSS
VL: DIVMTQSPLSLPVTPGEPASISCRSSQSLLHSNGYNYLDWYLQKPGQSPQLLIYGASSLQSGVPDRFSGSGSGTDFTLKISRVEAEDVGVYYCMQGLHTPPTFGQGTKLEIKR
notes: IgG1; also called ST2 Antibody 80
B3: Human ST2 IgG1 Antibody 93 (antibody, V domains shown)
VH: QVQLVQSGAEVKKPGSSVKVSCKASGGTFSTYAISWVRQAPGQGLEWMGGIIPSFNAPSYAQKFQGRVTITADKSTSTAYMELSSLRSEDTAVYYCARVVPAAIVGWYFDLWGRGTLVTVSS
VL: DIVMTQSPLSLPVTPGEPASISCRSSQSLLHSNGYNYLDWYLQKPGQSPQLLIYAASTLQTGVPDRFSGSGSGTDFTLKISRVEAEDVGVYYCMQALQTPPTFGQGTKVEIKR
notes: IgG1; also called ST2 Antibody 93
B4: Human ST2 IgG1 Antibody 90 (antibody, V domains shown)
VH: QVQLVQSGAEVKKPGSSVKVSCKASGYTFSDFSIHWVRQAPGQGLEWMGGMLPISHIAHYARKFQGRVTITADESTSTAYMELSSLRSEDTAVYYCARGGSSGWFEVWGQGTTVTVSS
VL: DIVMTQSPLSLPVTPGEPASISCRSSQSLLHSNGYNYLDWYLQKPGQSPQLLIYAASTLQSGVPDRFSGSGSGTDFTLKISRVEAEDVGVYYCMQGAHWPPTFGQGTKLEIKR
notes: IgG1; also called ST2 Antibody 90
B5: Human ST2 IgG1 Antibody 84 (antibody, V domains shown)
VH: QVQLVQSGAEVKKPGSSVKVSCKASGGTFSSYALSWVRQAPGQGLEWMGGIIPIFGTANYAQKFQGRVTITADESTSTAYMELSSLRSEDTAVYYCARAAAAGTAWYFDLWGRGTLVTVSS
VL: not shown
notes: IgG1; also called ST2 Antibody 84
B6: Human ST2 IgG1 Antibody 78 (antibody, V domains shown)
VH: EVQLLESGGGLVQPGGSLRLSCAASDFNFKNAWMSWVRQAPGKGLEWVSAISGNGAGTYYADSVKGRFTISRDNSKNTLYLQMNSLRAEDTAVYYCARVGETGAFDIWGQGTTVTVSS
VL: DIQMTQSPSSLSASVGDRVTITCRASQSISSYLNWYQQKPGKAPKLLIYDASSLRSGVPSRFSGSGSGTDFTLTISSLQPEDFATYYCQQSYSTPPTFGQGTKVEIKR
notes: IgG1; also called ST2 Antibody 78
B7: Human ST2 IgG1 Antibody 85 (antibody, V domains shown)
VH: EVQLLESGGGLVQPGGSLRLSCAASGFSFSTYWMHWVRQAPGKGLEWVSGISGGGIYTYYADSVKGRFTISRDNSKNTLYLQMNSLRAEDTAVYYCASMTYGDYYGMDVWGQGTTVTVSS
VL: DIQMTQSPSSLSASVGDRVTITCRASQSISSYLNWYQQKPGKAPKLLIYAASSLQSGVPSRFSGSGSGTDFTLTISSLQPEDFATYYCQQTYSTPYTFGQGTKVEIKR
notes: IgG1; also called ST2 Antibody 85
B8: Human ST2 IgG1 Antibody 76 (antibody, V domains shown)
VH: QVQLVQSGAEVKKPGSSVKVSCKASGYTFTDYYMHWVRQAPGQGLEWMGVIIPVLGAAKYAQKFQGRVTITADESTSTAYMELSSLRSEDTAVYYCAKGWGAFDIWGQGTMVTVSS
VL: EIVMTQSPATLSVSPGERATLSCRASQSVSSYLAWYQQKPGQAPRLLIYGASTRASGIPARFSGSGSGTEFTLTISSLQSEDFAVYYCQQYYSYPWTFGQGTKVEIKR
notes: IgG1; also called ST2 Antibody 76
B9: Human ST2 IgG1 Antibody 86 (antibody, V domains shown)
VH: QVQLVQSGAEVKKPGSSVKVSCKASGGTFSNYAISWVRQAPGQGLEWMGGIIPIFGTANYAQKFQGRVTITADESTSTAYMELSSLRSEDTAVYYCAKDLGGWFNLFDPWGQGTLVTVSS
VL: EIVMTQSPATLSVSPGERATLSCRASQGVSSYLAWYQQKPGQAPRLLIYGASTRATGIPARFSGSGSGTEFTLTISSLQSEDFAVYYCQQYRSFPLTFGGGTKVEIKR
notes: IgG1; also called ST2 Antibody 86
B10: Human ST2 IgG1 Antibody 94 (antibody, V domains shown)
VH: QVQLVQSGAEVKKPGSSVKVSCKASGGILNSYAITWVRQAPGQGLEWMGRIIPILGIANYAQKFQGRVTITADESTSTAYMELSSLRSEDTAVYYCVENESGPLFDYWGQGTLVTVSS
VL: EIVMTQSPATLSVSPGERATLSCRASQSVYSSYLAWYQQKPGQAPRLLIYGTSSRAAGIPARFSGSGSGTEFTLTISSLQSEDFAVYYCQQYYSTPYTFGQGTKVEIKR
notes: IgG1; also called ST2 Antibody 94
B11: Human ST2 IgG1 Antibody 92 (antibody, V domains shown)
VH: QVQLVQSGAEVKKPGSSVKVSCKASGGSFSGQAVNWVRQAPGQGLEWMGGFVSLFGTANYAQKFQGRVTITADESTSTAYMELSSLRSEDTAVYYCARDREGLGWYFDLWGRGTLVTVSS
VL: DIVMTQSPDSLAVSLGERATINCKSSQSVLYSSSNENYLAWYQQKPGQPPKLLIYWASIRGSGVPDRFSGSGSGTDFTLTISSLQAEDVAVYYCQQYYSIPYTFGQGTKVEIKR
notes: IgG1; also called ST2 Antibody 92
B12: Human ST2 IgG1 Antibody 77 (antibody, V domains shown)
VH: QVQLVQSGAEVKKPGSSVKVSCKASGYTFSDHYIHWVRQAPGQGLEWMGGIIPILGTANYAQKFQGRVTITADESTSTAYMELSSLRSEDTAVYYCATDIAVAGTGFDYWGQGTLVTVSS
VL: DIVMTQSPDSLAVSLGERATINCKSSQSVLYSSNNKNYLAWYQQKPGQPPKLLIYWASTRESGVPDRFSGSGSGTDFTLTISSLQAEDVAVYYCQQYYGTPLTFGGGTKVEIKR
notes: IgG1; also called ST2 Antibody 77
B13: Human ST2 IgG1 Antibody 81 (antibody, V domains shown)
VH: EVQLLESGGGLVKPGGSLRLSCAASGFTFSSYWMSWVRQAPGKGLEWVSSISSSGNYMYYAVSVKGRFTISRDDSKNTLYLQMNSLKTEDTAVYYCATETYSYSSMDVWGQGTTVTVSS
VL: DIQMTQSPSSLSASVGDRVTITCRASQSISSYLNWYQQKPGKAPKLLIYDASNLETGVPSRFSGSGSGTDFTLTISSLQPEDFATYYCQQSYGTPLTFGGGTKVDIKR
notes: IgG1; also called ST2 Antibody 81
B14: Human ST2 IgG1 Antibody 82 (antibody, V domains shown)
VH: QVQLVQSGAEVKKPGASVKVSCKASGYTFTENEMHWVRQAPGQGLEWMGWISAYNGDTNYAQKFQGRVTMTRDTSTSTVYMELSSLRSEDTAVYYCAKEVRLDDDEMWYFDLWGRGTLVTVSS
VL: DIQMTQSPSSLSASVGDRVTITCRASQDINNFLVWYQQKPGKAPKLLIYDASNLETGVPSRFSGSGSGTDFTLTISSLQPEDFATYYCQQAYSFPLTFGGGTKVEIKR
notes: IgG1; also called ST2 Antibody 82
B15: Human ST2 IgG1 Antibody 87 (antibody, V domains shown)
VH: QVQLVQSGAEVKKPGASVKVSCKASGYTFAGQYMHWVRQAPGQGLEWMGNINPSGGSTSYAQRFQGRVTMTRDTSTSTVYMELSSLRSEDTAVYYCARGDYSETYYYYMDVWGKGTTVTVSS
VL: DIQMTQSPSSLSASVGDRVTITCRASQHINSNLNWYQQKPGKAPKLLIYGASSLQSGVPSRFSGSGSGTDFTLTISSLQPEDFATYYCQQSYTTPFTFGPGTKVDIKR
notes: IgG1; also called ST2 Antibody 87
B16: Human ST2 IgG1 Antibody 91 (antibody, V domains shown)
VH: EVQLLESGGGLVKPGGSLRLSCAASGFTFSSYWMSWVRQAPGKGLEWVSVIYSGGSTYYADSVKGRFTISRDDSKNTLYLQMNSLKTEDTAVYYCARGLGWFDPWGQGTLVTVSS
VL: DIQMTQSPSSLSASVGDRVTITCQANQHIGNSLNWYQQKPGKAPKLLIFAASRLQSGVPSRFSGSGSGTDFTLTISSLQPEDFATYYCQQSYGTPLTFGGGTKVEIKR
notes: IgG1; also called ST2 Antibody 91
B17: Human ST2 IgG1 Antibody 75 (antibody, V domains shown)
VH: EVQLLESGGGLVQHGGSLRLSCAASGFTFSSYWMSWVRQAPGKGLEWVSSISSSSSYIYYADSVKGRFTISRDNSKNTLYLQMNSLRAEDTAVYYCARDIAGYFDLWGRGTLVTVSS
VL: DIQMTQSPSSLSASVGDRVTITCQASQSISSYLNWYQQKPGKAPKLLIYAASSLQSGVPSRFSGSGSGTDFTLTISSLQPEDFATYYCQQGYLTPYTFGQGTKLEIKR
notes: IgG1; also called ST2 Antibody 75
B18: Human ST2 IgG1 Antibody 83 (antibody, V domains shown)
VH: EVQLLESGGGLVKPGGSLRLSCAASGFTFSSYWMSWVRQAPGKGLEWVSAIGTAGDTYYPGSVKGRFTISRDDSKNTLYLQMNSLKTEDTAVYYCAILRRDKVWPFDYWGQGTLVTVSS
VL: DIQMTQSPSSLSASVGDRVTITCRASQSISSHLHWYQQKPGKAPKLLIYAASSLQSGVPSRFSGSGSGTDFTLTISSLQPEDFATYYCQQSYSSPVTFGGGTKVEIKR
notes: IgG1; also called ST2 Antibody 83
B19: Human ST2 IgG1 Antibody 89 (antibody, V domains shown)
VH: EVQLLESGGGLVKPGGSLRLSCAASGFTFSSYWMSWVRQAPGKGLEWVSAISGTAINTYYADSVKGRFTISRDDSKNTLYLQMNSLKTEDTAVYYCARVRRDSSGGGAFDIWGQGTMVTVSS
VL: DIQMTQSPSSLSASVGDRVTITCRASQGISNNLNWYQQKPGKAPKLLIYAASSLQTGVPSRFSGSGSGTDFTLTISSLQPEDFATYYCQQSYSTPPTFGQGTKVEIKR
notes: IgG1; also called ST2 Antibody 89

The target in this assay is T1, Human ST2. Put plainly: SPR (Carterra), antibody immobilized, ST2 analyte. As for the experimental part: Binding of the reformatted human ST2 antibodies to the human and mouse ST2 proteins was evaluated by surface plasmon resonance (SPR), using a high throughput antibody screening and characterization platform from Carterra (Salt Lake City, Utah).
By Kd is commonly meant a measure of binding affinity in units of concentration. Low readings indicate tighter binding, high ones weaker binding. As usually defined, the koff is the first-order rate constant of dissociation. Broadly, the kon is the second-order rate constant of association. In turn, B1 returned a Kd of 543 nM, a koff of 0.13 s⁻¹ and a kon of 240000 M⁻¹ s⁻¹.
On to B2, for which the Kd is 842 nM, the koff amounted to 0.056 s⁻¹ and the kon was determined as 67000 M⁻¹ s⁻¹.
B3 registered a Kd of 728 nM, a koff of 0.11 s⁻¹ and a kon of 150000 M⁻¹ s⁻¹.
As for B4, the Kd was determined as 970 nM, the koff came to 0.17 s⁻¹ and the kon was 170000 M⁻¹ s⁻¹.
In turn, B5 came in with a Kd of 125 nM, a koff of 0.0019 s⁻¹ and a kon of 15000 M⁻¹ s⁻¹.
The like results for B6 were, in that order, 154 nM, 0.082 s⁻¹ and 530000 M⁻¹ s⁻¹.
Consider B7, for which the Kd was determined as 554 nM, the koff is 0.068 s⁻¹ and the kon stood at 120000 M⁻¹ s⁻¹.
Take B8: binding was characterised by a dissociation constant (Kd) of 133 nM, the koff worked out at 0.11 s⁻¹ and the kon was 820000 M⁻¹ s⁻¹.
The molecule B9 gave a Kd of 41 nM, a koff of 0.029 s⁻¹ and a kon of 720000 M⁻¹ s⁻¹.
B10 showed a Kd of 483 nM, a koff of 0.062 s⁻¹ and a kon of 130000 M⁻¹ s⁻¹.
The like results for B11 were, in that order, 662 nM, 0.13 s⁻¹ and 200000 M⁻¹ s⁻¹.
B12: the Kd was determined as 377 nM, the koff was found to be 0.099 s⁻¹ and the kon amounted to 260000 M⁻¹ s⁻¹.
Molecule B13 yielded a Kd of 126 nM, a koff of 0.026 s⁻¹ and a kon of 200000 M⁻¹ s⁻¹.
Take B14: the Kd turned out to be 204 nM, the koff turned out to be 0.003 s⁻¹ and the kon turned out to be 15000 M⁻¹ s⁻¹.
For the molecule B15, the Kd came to 642 nM, the koff was found to be 0.018 s⁻¹ and the kon came out at 27000 M⁻¹ s⁻¹.
As for B16, the Kd was determined as 256 nM, the koff turned out to be 0.041 s⁻¹ and the kon amounted to 160000 M⁻¹ s⁻¹.
B17: the Kd stood at 360 nM, the koff was found to be 0.041 s⁻¹ and the kon is 120000 M⁻¹ s⁻¹.
As for B18, binding was characterised by a dissociation constant (Kd) of 70 nM, the koff was 0.018 s⁻¹ and the kon is 260000 M⁻¹ s⁻¹.
Turning to B19, the Kd came to 102 nM, the koff stood at 0.024 s⁻¹ and the kon amounted to 240000 M⁻¹ s⁻¹.

For the origin of these results see patent US20210403579A1 (DELINIA, published 2021).
